Assay results from the supplement of paper PMC9732359.
± gives the uncertainty stated by the source.

Experiment: protein stability index of a GFP-peptide fusion (yeast GPS) (PSI 1-4); higher = more stable; sorted into four equal gates, so the index is relative within each strain
Outline: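 Sequencing reads from sorted gates were used to score each peptide. The library consisted of tiled 17-residue yeast protein peptides fused downstream of GFP on a Cherry-expressing plasmid, pooled and carried in yeast. Mid-log cultures in leucine-free medium were split into four equal gates by GFP/Cherry ratio, and each gate's plasmids were PCR-amplified and Illumina-sequenced. The protein stability index adds up, over all gates, the read frequency multiplied by the gate number.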

Row | Sequence | protein stability index (doa10∆) | protein stability index (pdr5∆) | protein stability index (san1∆) | protein stability index (ubr1∆)
1 | SFDAVSDSIELLKQYPK [YJR042W/NUP85] | 2.86 ± 0.083 | 3.16 ± 0.085 | 2.56 ± 0.11 | 2.59 ± 0.087
2 | IKENFFERIMILDPQVT [YJL039C/NUP192] | 1.3 ± 0.062 | 1.33 ± 0.054 | 1.29 ± 0.12 | 1.14 ± 0.05
3 | LQYLDKHIKNLEDDSLL [RPN12] | 3.44 ± 0.068 | 3.42 ± 0.081 | 3.35 ± 0.063 | 3.3 ± 0.049
4 | LHDEYLVSMRYPEDKKT [RPN3] | 2.81 ± 0.26 |  |  | 
5 | SDSLDIAQGIDLVRDID [SRP72] | 3.29 ± 0.11 | 3.38 ± 0.088 | 3.09 ± 0.077 | 3.26 ± 0.1
6 | NIMVTIDGCVKIGDLGL [SSN3] | 3.27 ± 0.16 | 3.12 ± 0.14 | 3.5 ± 0.069 | 3.43 ± 0.052
7 | VCQVTKFGLLLQVSAQE [ECM29] | 2.15 ± 0.061 | 2.15 ± 0.044 | 2.62 ± 0.067 | 1.9 ± 0.04
8 | GQSINDSLKKLLPQWDD [ARP9] | 2.88 ± 0.047 | 2.86 ± 0.044 | 2.74 ± 0.045 | 2.88 ± 0.04
9 | VSMVKRAIDSLIQKGYL [CDC53] | 1.74 ± 0.053 | 1.82 ± 0.058 | 2.03 ± 0.11 | 1.74 ± 0.052
10 | RLKGDIFCVGSGQTFAY [PRE2] | 2.39 ± 0.05 | 1.77 ± 0.041 | 2.25 ± 0.019 | 1.79 ± 0.044
11 | SMGSILLSFVLGVVFGR [YML031W/NDC1] | 2.39 ± 0.046 | 2.13 ± 0.043 | 2.56 ± 0.055 | 2.64 ± 0.059
12 | DYNDVEVNSKKKNKRAL [BRR2] | 3.07 ± 0.098 | 2.95 ± 0.07 | 2.78 ± 0.12 | 3.02 ± 0.061
13 | INDKRANLMLVMLRLLL [SRB4] | 1.6 ± 0.039 | 1.61 ± 0.047 | 1.97 ± 0.067 | 1.94 ± 0.04
14 | YSSVAGTVSRVNRLLSV [RRP4] | 1.74 ± 0.036 | 1.77 ± 0.038 | 1.82 ± 0.053 | 1.8 ± 0.03
15 | VANSTKAAFIRVNGSEF [RPT3] | 1.92 ± 0.05 | 1.69 ± 0.044 | 1.66 ± 0.082 | 1.44 ± 0.034
16 | TVIKFRAGVCEYNEDSR [RPN13] | 2.26 ± 0.12 | 1.96 ± 0.071 | 1.8 ± 0.13 | 2.77 ± 0.07
17 | IPSKNTPDASKPSFSFG [YLR335W/NUP2] | 2.51 ± 0.15 | 3.14 ± 0.23 | 2.44 ± 0.2 | 2.78 ± 0.085
18 | SYFKNSVIVKFHSEPDR [LIN1] | 2.23 ± 0.062 | 2.59 ± 0.075 | 2.44 ± 0.067 | 2.77 ± 0.047
19 | NEKRYATASAIAATAVA [RPL4A] | 2.29 ± 0.087 | 1.53 ± 0.056 | 1.74 ± 0.14 | 1.5 ± 0.066
20 | KQGRIKNATEELLRLAN [CSN12] | 3.15 ± 0.17 | 3 ± 0.13 | 2.6 ± 0.14 | 3.36 ± 0.22
21 | AILYTKPGHVLQEEWDQ [YGR119C/NUP57] |  | 3.25 ± 0.14 |  | 3.81 ± 0.23
22 | YARADTHFLLNIYDQLR [RRP6] | 2.54 ± 0.045 | 2.34 ± 0.042 | 2.44 ± 0.05 | 2.58 ± 0.027
23 | FIESIVVDFKNKENDNV [SNF12] | 2.55 ± 0.15 | 3.04 ± 0.18 |  | 3.03 ± 0.27
24 | MAHFKEYQVIGRRLPTE [RPL20A] | 2.21 ± 0.071 | 2.07 ± 0.061 | 1.4 ± 0.1 | 2.4 ± 0.047
25 | LGGEINDNEDDDEEYDY [BRR2] | 3.5 ± 0.17 | 3.34 ± 0.081 | 3.28 ± 0.065 | 3.43 ± 0.1
26 | KILNIIKCSQSSHLSDN [POP5] | 1.97 ± 0.05 | 2.77 ± 0.069 | 2.28 ± 0.065 | 2.09 ± 0.053
27 | LLVPLALLTKRLYPHWD [CSN12] | 2.33 ± 0.066 | 2.01 ± 0.063 | 1.83 ± 0.092 | 1.5 ± 0.037
28 | LSEAWRCWKANIPWDVP [PRP8] | 2.15 ± 0.11 | 2.16 ± 0.098 | 1.1 ± 0.15 | 3.42 ± 0.15

Row | Sequence | protein stability index (doa10∆) | protein stability index (pdr5∆) | protein stability index (san1∆) | protein stability index (ubr1∆)
29 | NNTKAGRRKTWKRQNTL [RPL15A] | 2.65 ± 0.059 | 2.95 ± 0.07 | 2.44 ± 0.083 | 2.87 ± 0.12
30 | YINSDSVNPAMLPGSSN [RPO31] | 2.6 ± 0.1 | 2.74 ± 0.099 | 2.73 ± 0.15 | 2.83 ± 0.074
31 | QNPMRDLKIEKLVLNIS [RPL11A] | 3.04 ± 0.076 | 3.09 ± 0.08 | 3.33 ± 0.082 | 2.84 ± 0.11
32 | QLDFTEFDEQYGTRPLV [SNF2] | 3.26 ± 0.048 | 3.02 ± 0.047 | 3.21 ± 0.039 | 2.81 ± 0.032
33 | IDVTFTKVNNQLIKVAV [RPL9A] | 2.23 ± 0.068 | 1.87 ± 0.048 | 1.75 ± 0.087 | 2.44 ± 0.036
34 | VRIHSIQVLTEASSLGY [IRR1] | 1.49 ± 0.22 | 1.64 ± 0.12 |  | 
35 | KGAGLSMGTMICGYTRK [PRE2] | 1.64 ± 0.16 | 1.27 ± 0.17 |  | 1.11 ± 0.17
36 | LDGKFSLFHTAVSVANG [RPN2] | 2.09 ± 0.056 | 2.03 ± 0.057 | 2.45 ± 0.077 | 2.37 ± 0.06
37 | VIFKIRDRTSGQKLLAI [SRB4] |  | 3.17 ± 0.2 | 3.5 ± 0.11 | 3.33 ± 0.16
38 | KFHKREVVEAVTVVDTP [RPL3] | 1.44 ± 0.075 | 1.55 ± 0.066 | 1.63 ± 0.18 | 1.45 ± 0.069
39 | LQIAQLTLKHRQNKVQH [RPN10] | 2.26 ± 0.088 | 2.23 ± 0.071 | 1.74 ± 0.1 | 1.88 ± 0.065
40 | FAVALKNEPDYSKAKYP [CDC53] | 2.88 ± 0.078 | 2.46 ± 0.081 | 2.37 ± 0.098 | 2.34 ± 0.092
41 | ASRNVWSFYNGNVLIND [SNU114] | 2.87 ± 0.12 | 3.1 ± 0.082 | 3.5 ± 0.053 | 2.99 ± 0.063
42 | KERLTKEAAAVAEGKSK [RPL8A] | 3.53 ± 0.16 | 2.74 ± 0.22 | 3.31 ± 0.15 | 3.1 ± 0.16
43 | KIYNFGELLHHPIMETI [RPN9] | 2.58 ± 0.068 | 2.6 ± 0.074 | 1.84 ± 0.11 | 2.91 ± 0.11
44 | SKLSQEFLYPHLNFPNV [SNF12] | 2.88 ± 0.08 | 2.96 ± 0.088 | 2.82 ± 0.069 | 3.02 ± 0.065
45 | EVRGQVPVIESAGFETD [SNU114] | 1.37 ± 0.052 | 1.59 ± 0.06 | 1.49 ± 0.15 | 1.86 ± 0.057
46 | NISNAKLANFFSKKGNE [YAR002W/NUP60] | 2.83 ± 0.092 | 3.05 ± 0.062 | 2.88 ± 0.07 | 2.33 ± 0.079
47 | RRSKMNPLWNAIIVAGV [PRE4] | 2.87 ± 0.097 | 3.25 ± 0.12 | 2.86 ± 0.097 | 2.93 ± 0.074
48 | QDEAELVEEKTPGLTFN [RPC82] |  | 3.62 ± 0.29 |  | 3.35 ± 0.12
49 | QALRVLRLKPGRKYTTL [RPL16B] | 2.34 ± 0.055 | 1.98 ± 0.051 | 2.37 ± 0.057 | 2.73 ± 0.048
50 | ESLILKWDNQSASRAKN [RGR1] | 3.16 ± 0.05 | 3.24 ± 0.055 | 2.9 ± 0.05 | 3.09 ± 0.052
51 | VFVDGEANWPLPVNIRR [RPO21] | 2.99 ± 0.081 | 3.06 ± 0.085 | 3.12 ± 0.13 | 3.13 ± 0.072
52 | TLNPKTGHLFLKIIHTS [PRP8] | 2.44 ± 0.047 | 1.91 ± 0.048 | 1.77 ± 0.076 | 1.84 ± 0.048
53 | QEDELDEGTALSRLGLK [RPB10] | 3.41 ± 0.073 | 3.38 ± 0.086 | 3.5 ± 0.058 | 3.06 ± 0.079
54 | NSNGIAMASLYLTGGQQ [SMD1] | 2.44 ± 0.073 | 2.66 ± 0.06 | 2.63 ± 0.063 | 2.59 ± 0.059
55 | DRIIHTWRTQLAASEIG [ECM29] | 1.65 ± 0.056 | 1.84 ± 0.06 | 1.65 ± 0.062 | 1.83 ± 0.035
